The results in this text go back to CN116041526A.

This experiment deals with 重组蛋白SUMO-IgT CH1-CH2 (recombinant grass carp IgT heavy chain constant region CH1-CH2 domains fused to SUMO, from E. coli) (草鱼 (Ctenopharyngodon idella)). Description: titre of the antibody purified from ascites; assay not given, taken as ELISA on SUMO-IgT CH1-CH2.

B1: 鼠抗草鱼IgT单克隆抗体 (mouse anti-grass carp IgT monoclonal antibody, secreted by hybridoma cell line IgT-6H6G11, CCTCC NO: C202288) (antibody, IgG2a, V domains shown)
VH: QVQLVETGGGLVRPGNSLKLSCVTSGFTFSNYRMHWLRQPPGKRLEWIAVITVKSDNYRARYAESVKGRFTISRDDSKSSVYLQMNRLREEDTATYFCSREGPYYGNWVAMDYWGQGTSVTVSS
VL: DVVLTQSPATLSVTPGDRVSLSCRASQSISNYLHWYQQKSHESPRLLIKYASQSISGIPSRFSGSGSGTGFTLSINSVETEDFGMYFCQQSHSWPYTFGGGTKLEIK
B1: the 效价 (titre) (dilution (1:x)) stood at 64000.
